{
  "source": "ChEMBL document CHEMBL3576833",
  "about": "“Design and Synthesis of Acetylenyl Benzamide Derivatives as Novel Glucokinase Activators for the Treatment of T2DM” (ACS Med Chem Lett, 2015)",
  "compound": "COC[C@H](C)Oc1cc(C#Cc2cccc(N)c2)cc(C(=O)Nc2ccn(C)n2)c1",
  "experiment": "Activation of recombinant human pancreatic glucokinase using 10 mM glucose as substrate assessed as enzyme Vmax by G6PDH coupled assay",
  "data": [
    {"protein": "Hexokinase-4 (Homo sapiens), P35557 (protein) MLDDRARMEAAKKEKVEQILAEFQLQEEDLKKVMRRMQKEMDRGLRLETHEEASVKMLPTYVRSTPEGSEVGDFLSLDLGGTNFRVMLVKVGEGEEGQWSVKTKHQMYSIPEDAMTGTAEMLFDYISECISDFLDKHQMKHKKLPLGFTFSFPVRHEDIDKGILLNWTKGFKASGAEGNNVVGLLRDAIKRRGDFEMDVVAMVNDTVATMISCYYEDHQCEVGMIVGTGCNACYMEEMQNVELVEGDEGRMCVNTEWGAFGDSGELDEFLLEYDRLVDESSANPGQQLYEKLIGGKYMGELVRLVLLRLVDENLLFHGEASEQLRTRGAFETRFVSQVESDTGDRKQIYNILSTLGLRPSTTDCDIVRRACESVSTRAAHMCSAGLAGVINRMRESRSEDVMRITVGVDGSVYKLHPSFKERFHASVRRLTPSCEITFIESEEGSGRGAALVSAVACKKACMLGQ", "values": [
      {"measurement": "Vmax", "result": 126, "unit": "%"}
    ]}
  ]
}
